Article PMC10786891, “Massively parallel profiling of RNA-targeting CRISPR-Cas13d”

T1: EsCas13d, nuclease-dead (Eubacterium siraeum, UniProt B0MS50, R295A;H300A;R849A;H854A)
T1 sequence: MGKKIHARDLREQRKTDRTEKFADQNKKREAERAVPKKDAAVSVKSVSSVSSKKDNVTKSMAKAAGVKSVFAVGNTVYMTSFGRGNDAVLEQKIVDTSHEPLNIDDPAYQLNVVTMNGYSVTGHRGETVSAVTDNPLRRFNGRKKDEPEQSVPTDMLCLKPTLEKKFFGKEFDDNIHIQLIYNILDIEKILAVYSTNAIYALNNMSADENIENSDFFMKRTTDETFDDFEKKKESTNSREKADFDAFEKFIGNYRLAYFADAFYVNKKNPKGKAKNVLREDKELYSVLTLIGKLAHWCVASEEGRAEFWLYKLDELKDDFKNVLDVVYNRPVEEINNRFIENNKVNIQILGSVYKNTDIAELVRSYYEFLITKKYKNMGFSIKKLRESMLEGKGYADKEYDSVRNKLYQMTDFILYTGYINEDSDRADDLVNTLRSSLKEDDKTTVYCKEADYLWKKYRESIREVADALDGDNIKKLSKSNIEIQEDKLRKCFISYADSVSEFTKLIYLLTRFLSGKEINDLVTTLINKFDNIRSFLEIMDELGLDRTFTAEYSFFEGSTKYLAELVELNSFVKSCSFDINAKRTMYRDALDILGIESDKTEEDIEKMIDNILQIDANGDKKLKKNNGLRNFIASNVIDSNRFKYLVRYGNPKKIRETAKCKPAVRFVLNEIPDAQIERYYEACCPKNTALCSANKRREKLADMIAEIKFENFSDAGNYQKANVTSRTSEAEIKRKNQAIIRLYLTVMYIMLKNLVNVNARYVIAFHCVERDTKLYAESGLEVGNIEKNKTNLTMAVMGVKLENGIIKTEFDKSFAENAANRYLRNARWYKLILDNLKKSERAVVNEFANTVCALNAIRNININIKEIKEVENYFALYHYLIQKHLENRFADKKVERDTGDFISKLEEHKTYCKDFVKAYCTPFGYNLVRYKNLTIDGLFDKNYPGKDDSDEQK

B1: target 1 insA 3' of 21,insC 3' of 10 (mixed)
RNA 1: CACCCGUGCAAAAAUGCAGGGGUCUAAAACUGAGCGGAUAACCUCUCUAUGG
RNA 2: GGGAAUGGAUCCACAUCUACGAAUUCGUACCAAUAGAGAGGUUCAUCCGCUCACCGAGAUCGGAAGAGCACACGU
B2: target 1 U8G,U10A (mixed)
RNA 1: CACCCGUGCAAAAAUGCAGGGGUCUAAAACUGAGCGGAUAACCUCUCUAUGG
RNA 2: GGGAAUGGAUCCACAUCUACGAAUUCGUACCAUAGAGAGGUAAGCCGCUCACCGAGAUCGGAAGAGCACACGU
B3: target 1 U3G,U11G (mixed)
RNA 1: CACCCGUGCAAAAAUGCAGGGGUCUAAAACUGAGCGGAUAACCUCUCUAUGG
RNA 2: GGGAAUGGAUCCACAUCUACGAAUUCGUACCAUAGAGAGGGUAUCCGCGCACCGAGAUCGGAAGAGCACACGU
B4: target 1 U8A,A18G (mixed)
RNA 1: CACCCGUGCAAAAAUGCAGGGGUCUAAAACUGAGCGGAUAACCUCUCUAUGG
RNA 2: GGGAAUGGAUCCACAUCUACGAAUUCGUACCAUGGAGAGGUUAACCGCUCACCGAGAUCGGAAGAGCACACGU
B5: target 1 C4U,G12A (mixed)
RNA 1: CACCCGUGCAAAAAUGCAGGGGUCUAAAACUGAGCGGAUAACCUCUCUAUGG
RNA 2: GGGAAUGGAUCCACAUCUACGAAUUCGUACCAUAGAGAGAUUAUCCGUUCACCGAGAUCGGAAGAGCACACGU
B6: target 1 insC 3' of 5,insG 3' of 2 (mixed)
RNA 1: CACCCGUGCAAAAAUGCAGGGGUCUAAAACUGAGCGGAUAACCUCUCUAUGG
RNA 2: GGGAAUGGAUCCACAUCUACGAAUUCGUACCAUAGAGAGGUUAUCCGCCUCGACCGAGAUCGGAAGAGCACACGU
B7: target 1 insG 3' of 11,insU 3' of 2 (mixed)
RNA 1: CACCCGUGCAAAAAUGCAGGGGUCUAAAACUGAGCGGAUAACCUCUCUAUGG
RNA 2: GGGAAUGGAUCCACAUCUACGAAUUCGUACCAUAGAGAGGUGUAUCCGCUCUACCGAGAUCGGAAGAGCACACGU
B8: target 1 insU 3' of 12,insU 3' of 2 (mixed)
RNA 1: CACCCGUGCAAAAAUGCAGGGGUCUAAAACUGAGCGGAUAACCUCUCUAUGG
RNA 2: GGGAAUGGAUCCACAUCUACGAAUUCGUACCAUAGAGAGGUUUAUCCGCUCUACCGAGAUCGGAAGAGCACACGU
B9: target 1 insC 3' of 12,insA 3' of 4 (mixed)
RNA 1: CACCCGUGCAAAAAUGCAGGGGUCUAAAACUGAGCGGAUAACCUCUCUAUGG
RNA 2: GGGAAUGGAUCCACAUCUACGAAUUCGUACCAUAGAGAGGCUUAUCCGCAUCACCGAGAUCGGAAGAGCACACGU
B10: target 1 insG 3' of 8,insG 3' of 3 (mixed)
RNA 1: CACCCGUGCAAAAAUGCAGGGGUCUAAAACUGAGCGGAUAACCUCUCUAUGG
RNA 2: GGGAAUGGAUCCACAUCUACGAAUUCGUACCAUAGAGAGGUUAUGCCGCUGCACCGAGAUCGGAAGAGCACACGU
B11: target 1 insU 3' of 18 (mixed)
RNA 1: CACCCGUGCAAAAAUGCAGGGGUCUAAAACUGAGCGGAUAACCUCUCUAUGG
RNA 2: GGGAAUGGAUCCACAUCUACGAAUUCGUACCAUAUGAGAGGUUAUCCGCUCACCGAGAUCGGAAGAGCACACGU
B12: target 1 A9G,U19A (mixed)
RNA 1: CACCCGUGCAAAAAUGCAGGGGUCUAAAACUGAGCGGAUAACCUCUCUAUGG
RNA 2: GGGAAUGGAUCCACAUCUACGAAUUCGUACCAAAGAGAGGUUGUCCGCUCACCGAGAUCGGAAGAGCACACGU
B13: target 1 insA 3' of 21,insC 3' of 15 (mixed)
RNA 1: CACCCGUGCAAAAAUGCAGGGGUCUAAAACUGAGCGGAUAACCUCUCUAUGG
RNA 2: GGGAAUGGAUCCACAUCUACGAAUUCGUACCAAUAGAGCAGGUUAUCCGCUCACCGAGAUCGGAAGAGCACACGU
B14: target 1 insA 3' of 22,insG 3' of 2 (mixed)
RNA 1: CACCCGUGCAAAAAUGCAGGGGUCUAAAACUGAGCGGAUAACCUCUCUAUGG
RNA 2: GGGAAUGGAUCCACAUCUACGAAUUCGUACACAUAGAGAGGUUAUCCGCUCGACCGAGAUCGGAAGAGCACACGU
B15: target 1 insA 3' of 7,insU 3' of 2 (mixed)
RNA 1: CACCCGUGCAAAAAUGCAGGGGUCUAAAACUGAGCGGAUAACCUCUCUAUGG
RNA 2: GGGAAUGGAUCCACAUCUACGAAUUCGUACCAUAGAGAGGUUAUCACGCUCUACCGAGAUCGGAAGAGCACACGU
B16: target 1 U8G,A9U (mixed)
RNA 1: CACCCGUGCAAAAAUGCAGGGGUCUAAAACUGAGCGGAUAACCUCUCUAUGG
RNA 2: GGGAAUGGAUCCACAUCUACGAAUUCGUACCAUAGAGAGGUUUGCCGCUCACCGAGAUCGGAAGAGCACACGU
B17: target 1 C7U,A16C (mixed)
RNA 1: CACCCGUGCAAAAAUGCAGGGGUCUAAAACUGAGCGGAUAACCUCUCUAUGG
RNA 2: GGGAAUGGAUCCACAUCUACGAAUUCGUACCAUAGCGAGGUUAUUCGCUCACCGAGAUCGGAAGAGCACACGU
B18: target 1 insG 3' of 19,insG 3' of 16 (mixed)
RNA 1: CACCCGUGCAAAAAUGCAGGGGUCUAAAACUGAGCGGAUAACCUCUCUAUGG
RNA 2: GGGAAUGGAUCCACAUCUACGAAUUCGUACCAUGAGAGGAGGUUAUCCGCUCACCGAGAUCGGAAGAGCACACGU
B19: target 1 G5U,A9C (mixed)
RNA 1: CACCCGUGCAAAAAUGCAGGGGUCUAAAACUGAGCGGAUAACCUCUCUAUGG
RNA 2: GGGAAUGGAUCCACAUCUACGAAUUCGUACCAUAGAGAGGUUCUCCUCUCACCGAGAUCGGAAGAGCACACGU
B20: target 1 insU 3' of 9 (mixed)
RNA 1: CACCCGUGCAAAAAUGCAGGGGUCUAAAACUGAGCGGAUAACCUCUCUAUGG
RNA 2: GGGAAUGGAUCCACAUCUACGAAUUCGUACCAUAGAGAGGUUAUUCCGCUCACCGAGAUCGGAAGAGCACACGU
B21: target 1 insA 3' of 17,insC 3' of 10 (mixed)
RNA 1: CACCCGUGCAAAAAUGCAGGGGUCUAAAACUGAGCGGAUAACCUCUCUAUGG
RNA 2: GGGAAUGGAUCCACAUCUACGAAUUCGUACCAUAGAAGAGGUUCAUCCGCUCACCGAGAUCGGAAGAGCACACGU
B22: target 1 insG 3' of 21,insA 3' of 21 (mixed)
RNA 1: CACCCGUGCAAAAAUGCAGGGGUCUAAAACUGAGCGGAUAACCUCUCUAUGG
RNA 2: GGGAAUGGAUCCACAUCUACGAAUUCGUACCGAAUAGAGAGGUUAUCCGCUCACCGAGAUCGGAAGAGCACACGU
B23: target 1 insA 3' of 17,insA 3' of 10 (mixed)
RNA 1: CACCCGUGCAAAAAUGCAGGGGUCUAAAACUGAGCGGAUAACCUCUCUAUGG
RNA 2: GGGAAUGGAUCCACAUCUACGAAUUCGUACCAUAGAAGAGGUUAAUCCGCUCACCGAGAUCGGAAGAGCACACGU
B24: target 1 insC 3' of 22,insU 3' of 18 (mixed)
RNA 1: CACCCGUGCAAAAAUGCAGGGGUCUAAAACUGAGCGGAUAACCUCUCUAUGG
RNA 2: GGGAAUGGAUCCACAUCUACGAAUUCGUACCCAUAUGAGAGGUUAUCCGCUCACCGAGAUCGGAAGAGCACACGU

The binders below were run against T1, EsCas13d, nuclease-dead (assay: crRNA (strand 1, pre-loaded); Mg2+; 40 mM Tris-HCl pH 7.5, 150 mM NaCl, 6 mM MgCl2, 1 mM DTT, 0.1% Tween-20, 0.2 mg/ml BSA; 25 C; 10 min per concentration, then washed). Conditions: tags: His6-TwinStrep-SUMO cleaved; N-terminal SNAP kept (SNAP-Surface 488); label: 3' end held by stalled T7 RNA polymerase.
B1 gave a Kd of 57 ± 8 nM. B2 showed a Kd of 19.7 ± 1.2 nM. In the case of B3, the Kd is reported as 11.7 ± 0.9 nM. Binder B4 has a Kd of 72 ± 16 nM. B5 was tested, and the Kd was 23.7 ± 3 nM. For B6, the Kd was 10 ± 0.5 nM. With B7 the Kd was 50 ± 9 nM. B8 gave a Kd of 8.3 ± 0.8 nM. B9 gave a Kd of 7 ± 0.7 nM. With B10 the Kd was 7.7 ± 0.4 nM. In the case of B11, the Kd is reported as 31 ± 3.2 nM. B12 gave a Kd of 44 ± 5 nM. In the case of B13, the Kd is reported as 55 ± 11 nM. Binder B14 has a Kd of 12.2 ± 0.9 nM. Binder B15 has a Kd of 7.5 ± 0.6 nM. In the case of B16, the Kd is reported as 11.4 ± 0.4 nM. Binder B17 has a Kd of 43 ± 4 nM. In the case of B18, the Kd is reported as 97 ± 16 nM. Work on B19 yielded a Kd of 60 ± 6 nM. B20 gave a Kd of 13.1 ± 0.9 nM. For B21, the Kd was 27 ± 6 nM. Binder B22 has a Kd of 27.3 ± 3.5 nM. B23 showed a Kd of 19.2 ± 1.7 nM. B24 gave a Kd of 38 ± 9 nM.
